Results taken from PMC7642778.
Each block holds one substance with its values, some of them ahead of it.

How the values were obtained:
[1] = target: dithiol glutaredoxin-1 from Clostridium oremlandii (strain OhILAs) (Clostridium oremlandii (strain OhILAs)); assay: crystal structure; d-cGrx1 alone; crystals from 0.1 M sodium phosphate/citric acid pH 4.2, 0.2 M lithium sulfate, 20% PEG 1000, 20°C
[2] = target: monothiol glutaredoxin-1 from Clostridium oremlandii (C16S) (Clostridium oremlandii (strain OhILAs)); assay: crystal structure; m-cGrx1–cMsrA complex (β3-swap), formed by incubation with 5 mM methionine sulfoxide at 4°C for 2 h and purified on Superdex 75; crystals from 0.1 M sodium phosphate/citric acid pH 4.2, 0.4 M potassium phosphate (dibasic)/1.6 M sodium phosphate (monobasic), 20°C
[3] = target: monothiol glutaredoxin-1 from Clostridium oremlandii (C16S) (Clostridium oremlandii (strain OhILAs)); assay: crystal structure; m-cGrx1 alone (β1-swap), formed in the presence of hydrogen peroxide; crystals from 0.1 M HEPES pH 7.5, 20% PEG 400, 8% PEG 8000, 20°C

stoichiometry N [1]: 2
Substance: dithiol glutaredoxin-1 from Clostridium oremlandii (strain OhILAs) (enzyme)

stoichiometry N (cGrx1 per cMsrA (four cGrx1 : two cMsrA)) [2]: 2
Substance: methionine sulfoxide reductase A from Clostridium oremlandii (enzyme)

stoichiometry N [3]: 4
stoichiometry N [2]: 4
Substance: monothiol glutaredoxin-1 from Clostridium oremlandii (C16S) (enzyme)
